Assay results: article PMC10806771

Target: trastuzumab (human)
Experiment: fluorescence polarisation

IC50, > 3000 nM:
Fc-III W11K (peptide)
Fc-III W4K (peptide)
Fc-III V10K (peptide)
